The values that follow come from article PMC4513881.

In series [1] the target is T1, DCL1-A (first dsRBD) (Arabidopsis thaliana) (UniProt Q9SP32).
T1 sequence: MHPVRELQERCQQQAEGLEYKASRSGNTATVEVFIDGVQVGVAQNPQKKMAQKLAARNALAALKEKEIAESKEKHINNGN
The series is described as follows: fluorescence anisotropy. As to conditions: FA: 10 mM phosphate pH 7.0, 50 nM labeled nucleic acid, temperature not stated; CD: 10 mM phosphate pH 7; NMR complex: 20 mM phosphate pH 7.0, 5 mM TCEP. On the technique in general: In fluorescence polarisation assays a small probe gives low polarisation when free and higher when bound to something large.

For series [2], the target named is T2, DCL1-AB (both dsRBDs) (Arabidopsis thaliana) (UniProt Q9SP32).
T2 sequence: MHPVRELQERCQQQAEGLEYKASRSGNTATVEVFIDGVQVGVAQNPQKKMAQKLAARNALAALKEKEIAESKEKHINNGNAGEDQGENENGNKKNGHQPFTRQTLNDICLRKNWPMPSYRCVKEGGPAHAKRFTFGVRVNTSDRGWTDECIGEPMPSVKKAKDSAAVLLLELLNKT
Put plainly: fluorescence anisotropy. As to conditions: FA: 10 mM phosphate pH 7.0, 50 nM labeled nucleic acid, temperature not stated; CD: 10 mM phosphate pH 7; NMR complex: 20 mM phosphate pH 7.0, 5 mM TCEP.

As a reminder, the Kd is a measure of binding affinity in units of concentration. A high value points to weaker binding. Consider dsDNA, for which the Kd worked out at 860 nM in series [1] and 680 nM in series [2].
In the case of miR172a stem-loop (miRNA/miRNA* region), the Kd in series [1] was 723 nM; in series [2] it was 67 nM.
